Test results reported in patent US20030220285A1.

Tests used:
[1] = biological target: purified HLA-A11 molecules (human)
[2] = biological target: purified HLA-A2.1 molecules (human); conditions: remark: other sources report otherwise

Binder	IC50 [1]	IC50 [2]
TVYYGVPVWK (modifications not checked) [HIV Env 49 (HIV env 49-58) peptide …]	4 nM	
WLSLLVPFV (modifications not checked) [HBV Env 335 (HBV env 335-343) peptide …]		5 nM
